Article PMC6475063 (Journal of the American Heart Association: Cardiovascular …, 2019)

T1: YFP-tagged human AT1R (angiotensin II type 1 receptor) (human, UniProt P30556 1-359)
T1 sequence (looked up): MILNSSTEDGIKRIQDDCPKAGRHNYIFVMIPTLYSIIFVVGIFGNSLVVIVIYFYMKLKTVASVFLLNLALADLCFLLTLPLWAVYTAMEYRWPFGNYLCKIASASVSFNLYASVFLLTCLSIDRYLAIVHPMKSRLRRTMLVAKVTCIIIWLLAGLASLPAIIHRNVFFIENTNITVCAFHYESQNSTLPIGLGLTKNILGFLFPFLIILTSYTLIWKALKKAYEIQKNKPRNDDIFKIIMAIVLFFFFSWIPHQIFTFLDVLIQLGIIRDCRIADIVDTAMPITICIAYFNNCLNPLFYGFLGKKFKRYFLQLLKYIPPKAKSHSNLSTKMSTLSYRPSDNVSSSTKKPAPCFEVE


How the values were obtained:
[1] = target: T1, YFP-tagged human AT1R (angiotensin II …); assay: FRET or BRET
[2] = target: T1, YFP-tagged human AT1R (angiotensin II …); assay: FRET or BRET; remark: listed apart in the source

relative change of BRET ratio, 2 min with Ang II [1] | relative change of BRET ratio, 5 min with Ang II [1] | relative change of BRET ratio, 10 min with Ang II [1] | relative change of BRET ratio, 20 min with Ang II [1] | relative change of BRET ratio, 30 min with Ang II [1] | EC50 of Ang II for the relative change of BRET ratio [2] [nM] | Binder
89.1 % (Ang II for 10 minutes set to 100%) | 107 % (Ang II for 10 minutes set to 100%) | 100 % (Ang II for 10 minutes set to 100%) | 93.5 % (Ang II for 10 minutes set to 100%) | 95.8 % (Ang II for 10 minutes set to 100%) | 6.7 | RLuc-tagged bovine β-arrestin1 (natural protein, UniProt P17870 1-418, looked up) MGDKGTRVFKKASPNGKLTVYLGKRDFVDHIDLVEPVDGVVLVDPEYLKERRVYVTLTCAFRYGREDLDVLGLTFRKDLFVANVQSFPPAPEDKKPLTRLQERLIKKLGEHAYPFTFEIPPNLPCSVTLQPGPEDTGKACGVDYEVKAFCAENLEEKIHKRNSVRLVIRKVQYAPERPGPQPTAETTRQFLMSDKPLHLEASLDKEIYYHGEPISVNVHVTNNTNKTVKKIKISVRQYADICLFNTAQYKCPVAMEEADDTVAPSSTFCKVYTLTPFLANNREKRGLALDGKLKHEDTNLASSTLLREGANREILGIIVSYKVKVKLVVSRGGLLGDLASSDVAVELPFTLMHPKPKEEPPHREVPEHETPVDTNLIELDTNDDDIVFEDFARQRLKGMKDDKEEEEDGTGSPRLNDR
89.7 % (Ang II for 10 minutes set to 100%) | 102 % (Ang II for 10 minutes set to 100%) | 100 % (Ang II for 10 minutes set to 100%) | 112 % (Ang II for 10 minutes set to 100%) | 93.9 % (Ang II for 10 minutes set to 100%) | 6.3 | RLuc-tagged bovine β-arrestin2 (natural protein, UniProt P32120 1-420, looked up) MGEKPGTRVFKKSSPNCKLTVYLGKRDFVDHLDKVDPVDGVVLVDPDYLKDRKVFVTLTCAFRYGREDLDVLGLSFRKDLFIANYQAFPPTPNPPRPPTRLQERLLRKLGQHAHPFFFTIPQNLPCSVTLQPGPEDTGKACGVDFEIRAFCAKSLEEKSHKRNSVRLVIRKVQFAPEKPGPQPSAETTRHFLMSDRSLHLEASLDKELYYHGEPLNVNVHVTNNSTKTVKKIKVSVRQYADICLFSTAQYKCPVAQVEQDDQVSPSSTFCKVYTITPLLSNNREKRGLALDGKLKHEDTNLASSTIVKEGANKEVLGILVSYRVKVKLVVSRGGDVSVELPFVLMHPKPHDHIALPRPQSAATHPPTLLPSAVPETDAPVDTNLIEFETNYATDDDIVFEDFARLRLKGLKDEDYDDQFC
